This test concerns the target human Bcl-xL (residues 1-209, lacking the C-terminal hydrophobic tail) (human, UniProt Q07817-1 1-209, 15N-labelled where it was the observed protein). In words: NMR titration; 15N-Bcl-xL titrated with unlabeled cytochrome c up to Bcl-xL:cytochrome c 1:10, 1H-15N HSQC; Kd from weighted average chemical shift variations; 300 K; 50 mM sodium phosphate pH 7.3, 150 mM NaCl, 1 mM DTT, 10% D2O. As to conditions: both partners purified.

human Bcl-xL (residues 1-209, lacking the C-terminal hydrophobic tail), sequence (Q07817 1-209): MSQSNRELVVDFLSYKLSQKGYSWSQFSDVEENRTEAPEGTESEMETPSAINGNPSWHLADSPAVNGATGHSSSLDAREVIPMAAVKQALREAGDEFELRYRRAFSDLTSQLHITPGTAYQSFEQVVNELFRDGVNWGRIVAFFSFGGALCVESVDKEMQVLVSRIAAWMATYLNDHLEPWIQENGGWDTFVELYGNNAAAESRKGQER

B1: human cytochrome c (natural protein)
chain: not shown
modifications: heme, iron(II) (reduced) form; 15N-labelled where it was the observed protein
notes: cytochrome c, human, full length; also called reduced cytochrome c; source: expressed and purified as reported in the literature [36]; unlabeled and 15N-labeled form
For the molecule B1, the Kd lay in the range of 1000 to 3000 µM.
